Source: patent US20220289850 (published 2022)

Biological target: T1, human integrin avb3 (human, UniProt P06756)
T1 chain 1: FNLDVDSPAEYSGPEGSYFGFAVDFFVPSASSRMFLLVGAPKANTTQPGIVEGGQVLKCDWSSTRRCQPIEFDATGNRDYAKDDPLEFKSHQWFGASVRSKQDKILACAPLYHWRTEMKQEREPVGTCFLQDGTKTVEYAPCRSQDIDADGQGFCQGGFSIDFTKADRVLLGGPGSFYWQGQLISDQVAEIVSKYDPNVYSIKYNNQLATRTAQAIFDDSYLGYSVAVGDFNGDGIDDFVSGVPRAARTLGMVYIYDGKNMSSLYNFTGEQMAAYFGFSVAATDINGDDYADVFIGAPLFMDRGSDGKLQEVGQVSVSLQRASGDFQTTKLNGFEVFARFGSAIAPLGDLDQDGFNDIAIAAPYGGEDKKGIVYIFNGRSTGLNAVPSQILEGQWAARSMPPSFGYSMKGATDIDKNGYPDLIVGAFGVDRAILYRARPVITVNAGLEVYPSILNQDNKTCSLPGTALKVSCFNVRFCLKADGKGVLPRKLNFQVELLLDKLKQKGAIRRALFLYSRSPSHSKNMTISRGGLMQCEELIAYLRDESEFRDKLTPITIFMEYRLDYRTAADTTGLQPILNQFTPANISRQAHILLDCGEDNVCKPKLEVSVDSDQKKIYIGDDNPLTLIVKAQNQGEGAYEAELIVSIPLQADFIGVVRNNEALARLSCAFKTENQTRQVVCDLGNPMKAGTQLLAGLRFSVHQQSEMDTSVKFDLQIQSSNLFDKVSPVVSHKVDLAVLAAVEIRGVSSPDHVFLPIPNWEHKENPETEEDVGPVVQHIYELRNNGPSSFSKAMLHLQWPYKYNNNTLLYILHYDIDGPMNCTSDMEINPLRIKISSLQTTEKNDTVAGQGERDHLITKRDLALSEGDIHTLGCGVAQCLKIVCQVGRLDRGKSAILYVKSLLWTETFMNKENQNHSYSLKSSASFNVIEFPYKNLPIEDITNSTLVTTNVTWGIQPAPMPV
T1 chain 2: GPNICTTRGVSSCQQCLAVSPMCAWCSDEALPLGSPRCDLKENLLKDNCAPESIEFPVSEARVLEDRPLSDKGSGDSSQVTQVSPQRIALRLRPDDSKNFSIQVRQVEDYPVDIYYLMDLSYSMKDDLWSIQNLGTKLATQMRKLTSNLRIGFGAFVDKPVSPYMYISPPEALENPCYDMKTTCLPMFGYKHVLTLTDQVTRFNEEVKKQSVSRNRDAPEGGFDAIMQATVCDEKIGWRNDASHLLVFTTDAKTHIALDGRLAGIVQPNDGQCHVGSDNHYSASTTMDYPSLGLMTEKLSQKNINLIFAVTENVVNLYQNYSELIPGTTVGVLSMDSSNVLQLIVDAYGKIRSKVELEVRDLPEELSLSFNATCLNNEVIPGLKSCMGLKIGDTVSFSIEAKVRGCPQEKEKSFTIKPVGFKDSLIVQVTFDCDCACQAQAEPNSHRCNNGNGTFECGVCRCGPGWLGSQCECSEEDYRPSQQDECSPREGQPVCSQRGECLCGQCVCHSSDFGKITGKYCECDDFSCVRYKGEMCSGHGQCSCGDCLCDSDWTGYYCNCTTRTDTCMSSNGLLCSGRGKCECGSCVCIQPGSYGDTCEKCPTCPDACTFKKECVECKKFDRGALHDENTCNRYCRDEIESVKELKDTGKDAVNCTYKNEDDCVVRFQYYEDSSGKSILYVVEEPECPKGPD
Assay: SPR

binding result: no binding
B1: ADWA11 2.4 IgG (antibody)
chain 1: EVQLVESGGGLVQPGGSLRLSCAASGFNIKDYYMNWVRQAPGKGLEWVGWIDPDQGNTIYEPKFQGRFTISADTSKNSAYLQMNSLRAEDTAVYYCARRLLMDYWGQGTLVTVSSASTKGPSVFPLAPSSKSTSGGTAALGCLVKDYFPEPVTVSWNSGALTSGVHTFPAVLQSSGLYSLSSVVTVPSSSLGTQTYICNVNHKPSNTKVDKKVEPKSCDKTHTCPPCPAPEAAGAPSVFLFPPKPKDTLMISRTPEVTCVVVDVSHEDPEVKFNWYVDGVEVHNAKTKPREEQYNSTYRVVSVLTVLHQDWLNGKEYKCKVSNKALPAPIEKTISKAKGQPREPQVYTLPPSREEMTKNQVSLTCLVKGFYPSDIAVEWESNGQPENNYKTTPPVLDSDGSFFLYSKLTVDKSRWQQGNVFSCSVMHEALHNHYTQKSLSLSPGK
chain 2: DIQMTQSPSSLSASVGDRVTITCRSTKSLSHFNGNTYLFWYQQKPGKAPKRLIYYMSSLASGVPSRFSGSGSGTDFTLTISSLQPEDFATYYCQQSLEYPFTFGGGTKVEIKRTVAAPSVFIFPPSDEQLKSGTASVVCLLNNFYPREAKVQWKVDNALQSGNSQESVTEQDSKDSTYSLSSTLTLSKADYEKHKVYACEVTHQGLSSPVTKSFNRGEC
